The target of this assay is human angiotensin-converting-enzyme-2 (ACE2) receptor, recombinant (human, UniProt Q9BYF1 18-740). The experiment in a line: SPR.
human angiotensin-converting-enzyme-2 (ACE2) receptor, recombinant, sequence (Q9BYF1 18-740): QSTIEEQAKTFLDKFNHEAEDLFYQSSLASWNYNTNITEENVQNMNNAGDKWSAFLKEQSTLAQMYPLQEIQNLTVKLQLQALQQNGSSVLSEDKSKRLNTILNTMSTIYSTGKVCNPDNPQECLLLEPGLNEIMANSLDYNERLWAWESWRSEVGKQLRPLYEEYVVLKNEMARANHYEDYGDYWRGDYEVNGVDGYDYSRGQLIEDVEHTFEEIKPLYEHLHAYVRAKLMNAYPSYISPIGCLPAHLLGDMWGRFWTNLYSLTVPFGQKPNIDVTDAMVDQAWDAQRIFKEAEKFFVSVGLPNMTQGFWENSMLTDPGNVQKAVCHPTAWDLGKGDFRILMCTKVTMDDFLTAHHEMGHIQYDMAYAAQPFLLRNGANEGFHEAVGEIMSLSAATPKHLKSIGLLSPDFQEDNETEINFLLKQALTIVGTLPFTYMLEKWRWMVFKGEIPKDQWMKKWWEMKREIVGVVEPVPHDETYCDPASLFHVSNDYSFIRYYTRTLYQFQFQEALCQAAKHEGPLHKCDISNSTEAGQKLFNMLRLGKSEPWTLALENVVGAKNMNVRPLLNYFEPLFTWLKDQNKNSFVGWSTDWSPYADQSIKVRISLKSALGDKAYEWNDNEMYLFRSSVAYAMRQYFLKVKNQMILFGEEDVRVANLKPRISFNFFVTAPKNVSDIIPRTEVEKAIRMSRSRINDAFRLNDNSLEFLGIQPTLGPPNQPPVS

B1: pineapple-derived jacalin-related lectin AcmJRL (natural protein)
chain: SGLVKLGLWGGNEGTLQDIDGHPTRLTKIVIRSAHAIDALQFDYVEDGKTFAAGQWGGNGGKSDTIEFQPGEYLIAIKGTTGALGAVTNLVRSLTFISNMRTYGPFGLEHGTPFSVPVASGRIVAFYGRFGSLVDAFGIYLMPY
modifications: glycation (+162 Da, +324 Da) of lysines in part of the protein (ca. 10% bis-, 36% mono-modified, 54% unmodified); sites not determined
In the case of B1, the Kd amounted to 36.4 µM.

The Kd is the concentration at which binding is half-saturated.

These data come from doi:10.1101/2022.05.27.493400 (2022).
